According to patent US20080300163A1:

How the values were obtained:
[1] = molecular target: T1, full length rat GHR (L43R) on BAF3 cells (clone 2E2-2B12-F4) (rat) (UniProt P16310); assay: cell-based or functional assay
T1 sequence (looked up): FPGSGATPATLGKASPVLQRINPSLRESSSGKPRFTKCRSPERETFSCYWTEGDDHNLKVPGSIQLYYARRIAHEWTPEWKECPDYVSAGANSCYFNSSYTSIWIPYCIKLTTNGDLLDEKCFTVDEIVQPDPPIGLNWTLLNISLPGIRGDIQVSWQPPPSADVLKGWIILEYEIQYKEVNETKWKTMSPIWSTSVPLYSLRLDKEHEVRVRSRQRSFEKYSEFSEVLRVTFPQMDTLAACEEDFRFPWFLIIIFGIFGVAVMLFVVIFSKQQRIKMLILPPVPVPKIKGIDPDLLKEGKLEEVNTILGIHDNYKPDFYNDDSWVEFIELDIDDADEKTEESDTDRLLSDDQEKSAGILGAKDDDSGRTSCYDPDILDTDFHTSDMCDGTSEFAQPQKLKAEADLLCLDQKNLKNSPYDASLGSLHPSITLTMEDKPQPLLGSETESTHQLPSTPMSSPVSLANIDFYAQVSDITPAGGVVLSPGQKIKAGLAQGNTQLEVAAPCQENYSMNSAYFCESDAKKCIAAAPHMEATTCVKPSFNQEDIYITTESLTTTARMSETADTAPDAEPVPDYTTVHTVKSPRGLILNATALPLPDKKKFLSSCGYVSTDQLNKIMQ

[2] = molecular target: human growth hormone receptor on IM-9 cells (human) (UniProt P10912); assay: cell-based or functional assay
Chain of UniProt P10912 (P10912 19-638): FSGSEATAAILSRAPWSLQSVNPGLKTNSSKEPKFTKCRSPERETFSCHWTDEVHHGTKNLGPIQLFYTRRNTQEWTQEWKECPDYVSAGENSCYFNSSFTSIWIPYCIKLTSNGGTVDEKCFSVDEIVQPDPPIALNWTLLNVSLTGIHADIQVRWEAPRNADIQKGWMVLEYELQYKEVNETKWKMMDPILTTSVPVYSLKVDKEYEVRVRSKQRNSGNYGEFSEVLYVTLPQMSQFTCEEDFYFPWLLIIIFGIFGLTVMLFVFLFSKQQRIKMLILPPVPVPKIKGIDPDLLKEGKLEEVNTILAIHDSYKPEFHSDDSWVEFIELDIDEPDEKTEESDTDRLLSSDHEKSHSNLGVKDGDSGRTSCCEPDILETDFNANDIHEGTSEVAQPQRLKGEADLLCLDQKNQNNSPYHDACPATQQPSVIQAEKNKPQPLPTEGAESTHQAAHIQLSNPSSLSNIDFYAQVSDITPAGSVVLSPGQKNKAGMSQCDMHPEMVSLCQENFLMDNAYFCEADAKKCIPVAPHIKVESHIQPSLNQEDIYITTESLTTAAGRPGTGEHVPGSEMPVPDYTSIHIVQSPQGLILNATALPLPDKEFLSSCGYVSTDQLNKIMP

Proliferation EC50 [1] [nM] | pSTAT5 EC50 (nM) [2] [nM] | Substance
5.3 | 20.6 | K145pAF-30KPEG hGH (from UniProt P01241 27-217) (ligand)
– | 5.3 | R134pAF-20KPEG hGH (from UniProt P01241 27-217) (ligand)
6.6 | 12.3 | Y143pAF-30KPEG hGH (from UniProt P01241 27-217) (ligand)
4.6 | 23.8 | G131pAF-30KPEG hGH (from UniProt P01241 27-217) (ligand)
24 | 53.3 | Y35pAF-40KPEG hGH (from UniProt P01241 27-217) (ligand)
